Measured values as given in PMC4931251, “Characterization of the targeting signal in mitochondrial β-barrel proteins” (Nature Communications, 2016).

Target: T1, cytosolic receptor domain of rat Tom20 (dTom20), uniformly 15N-labelled (Rattus norvegicus, UniProt Q62760 51-145, uniformly [15N]-labelled)
T1 construct: Tom20 from Rattus norvegicus, cytosolic receptor domain, residues 51-145; Cloned into pET-22b without the stop codon; also called [15N]-dTom20; rat dTom20; source: E. coli BL21(DE3), purified (Ni-NTA, gel filtration on Superdex 200)
T1 sequence (looked up): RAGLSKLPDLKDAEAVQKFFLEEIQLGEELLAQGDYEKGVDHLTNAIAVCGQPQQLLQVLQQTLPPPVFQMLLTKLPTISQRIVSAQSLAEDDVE
Assay: NMR titration; [1H,15N]-HSQC of 210 μM [15N]-dTom20 in 20 mM KPi pH 6.4, 50 mM KCl, 5% DMSO; aliquots of 10 mM unlabelled cyclic peptide in DMSO added (two molar excess); DMSO effect subtracted
Conditions: both partners purified

binding result: binds
B1: cyclic β-hairpin peptide derived from human voltage-dependent anion channel 1 (hVDAC1) (peptide)
peptide: LTLSALLDGKNVNAGGHKLGLGLPP
modifications: head-to-tail cyclised: the new C terminus (after the two added Pro) covalently linked to the N terminus
notes: human voltage-dependent anion channel 1 (hVDAC1), last two β-strands and the loop between them, a.a; L257 to L279; residue numbers correspond to full-length hVDAC1; two Pro residues added to the C terminus (told in words); Measured mass [M+H]+ = 2,436.48; also called cyclic peptide; source: synthetic peptide (Fmoc/tBu chemistry, cyclised, purified by RP-HPLC)
